# Experimental data reported in PMC12660843, “Using phage display for rational engineering of a higher-affinity humanized 3’ phosphohistidine-specific antibody” (Communications Chemistry, 2025).
# *1 amine or outer side, *2 acyl side, *3 side chain or, on linkers, in order; H or OH if unused. Where no end group is shown, it is not given here. [ ]: non-standard residue; d: D form. The star is where a group is joined. 3‑pTza = 3-phosphotriazolyl alanine (also given as 3-phosphoryl-triazolylalanine); 3‑pHis = 3-phosphohistidine, O=C([C@H](Cc1cn(P(=O)(O)O)cn1)N[*:1])[*:2]; Biotin = O=C1N[C@H]2[C@H](CS[C@H]2CCCCC(=O)*)N1; Ahx = NCCCCCC(=O)O
# T1: 3-pHis peptide (Biotin-AminocaproicAcid-A.G.A.G.H.A.G.A.G phosphorylated by phosphoramidate)
# T1 construct: His-peptide, phosphorylated on His5; the phosphoramidate reaction gives a mixture of non-phosphorylated, 1-pHis, 3-pHis and di-pHis peptide; also called Biotinylated ACLYana-3-pHis; ACLYana-pHis; source: synthetic peptide, phosphorylated with potassium phosphoramidate; not shown: biotin, N-terminal, kept
# T1 peptide: {Biotin-Ahx}-AGAG[3‑pHis]AGAG
# T2: 3-pTza peptide (Biotin-AminocaproicAcid-A.G.A.G.3-pTza.A.G.A.G)
# T2 chain: {Biotin-Ahx}-AGAG[3‑pTza]AGAG
# T3: 3-pTza peptide (Biotin-AminocaproicAcid-A.G.A.G.3-pTza.A.G.A.G) (synthetic construct)
# T3 chain: {Biotin-Ahx}-AGAG[3‑pTza]AGAG
# What was measured:
# [1] = molecular target: 3-pTza peptide (Biotin-AminocaproicAcid-A.G.A.G.3-pTza.A.G.A.G); test: BLI; Octet RED96e; biotinylated peptides captured on streptavidin biosensors at 20 nM; Fab in solution, 20-200 nM; 1x HBS-T, 1% BSA
# [2] = molecular target: 3-pTza peptide (Biotin-AminocaproicAcid-A.G.A.G.3-pTza.A.G.A.G); test: as above; remark: listed apart in the source
# [3] = molecular target: T1, 3-pHis peptide …; test: as above
# [4] = molecular target: T2, 3-pTza peptide …; test: BLI; biotinylated peptide captured on streptavidin biosensors at 20 nM; IgG in solution at 20-200 nM; Octet HTX; 1x HBS-T, 1% BSA; conditions: both partners purified
# [5] = molecular target: T1, 3-pHis peptide …; test: as above; conditions: both partners purified
# [6] = molecular target: 3-pTza peptide (Biotin-AminocaproicAcid-A.G.A.G.3-pTza.A.G.A.G); test: BLI; Octet HTX; biotinylated peptides captured on streptavidin biosensors at 20 nM; IgG in solution, 20-200 nM; 1x HBS-T, 1% BSA
# [7] = molecular target: T1, 3-pHis peptide …; test: as above
# [8] = molecular target: T4, 3-pHis form of ACLY (120 kDa) (Homo sapiens (HEK293T, endogenous), UniProt P53396, 3-phosphohistidine (site not stated)); test: immunoblot; HEK293T whole cell lysate, 30 µg, alkaline 12% SDS-PAGE and alkaline blotting at 4 °C; 0.5 µg/mL IgG as primary antibody, 1 h at room temperature; HRP secondary antibody; conditions: one partner purified
# T4 construct: ACLY (ATP-citrate lyase), 120 kDa band on the immunoblot; source: endogenous, HEK293T lysate
# [9] = molecular target: T5, 3-pHis form of the a-subunit of SCS (30 kDa) (Homo sapiens (HEK293T, endogenous), UniProt P53597, 3-phosphohistidine (site not stated)); test: as above; conditions: one partner purified
# T5 construct: alpha subunit of SCS (succinyl-CoA synthetase), 30 kDa band on the immunoblot; source: endogenous, HEK293T lysate
# [10] = molecular target: T3, 3-pTza peptide …; test: BLI
# T4 sequence (P53396 whole entry): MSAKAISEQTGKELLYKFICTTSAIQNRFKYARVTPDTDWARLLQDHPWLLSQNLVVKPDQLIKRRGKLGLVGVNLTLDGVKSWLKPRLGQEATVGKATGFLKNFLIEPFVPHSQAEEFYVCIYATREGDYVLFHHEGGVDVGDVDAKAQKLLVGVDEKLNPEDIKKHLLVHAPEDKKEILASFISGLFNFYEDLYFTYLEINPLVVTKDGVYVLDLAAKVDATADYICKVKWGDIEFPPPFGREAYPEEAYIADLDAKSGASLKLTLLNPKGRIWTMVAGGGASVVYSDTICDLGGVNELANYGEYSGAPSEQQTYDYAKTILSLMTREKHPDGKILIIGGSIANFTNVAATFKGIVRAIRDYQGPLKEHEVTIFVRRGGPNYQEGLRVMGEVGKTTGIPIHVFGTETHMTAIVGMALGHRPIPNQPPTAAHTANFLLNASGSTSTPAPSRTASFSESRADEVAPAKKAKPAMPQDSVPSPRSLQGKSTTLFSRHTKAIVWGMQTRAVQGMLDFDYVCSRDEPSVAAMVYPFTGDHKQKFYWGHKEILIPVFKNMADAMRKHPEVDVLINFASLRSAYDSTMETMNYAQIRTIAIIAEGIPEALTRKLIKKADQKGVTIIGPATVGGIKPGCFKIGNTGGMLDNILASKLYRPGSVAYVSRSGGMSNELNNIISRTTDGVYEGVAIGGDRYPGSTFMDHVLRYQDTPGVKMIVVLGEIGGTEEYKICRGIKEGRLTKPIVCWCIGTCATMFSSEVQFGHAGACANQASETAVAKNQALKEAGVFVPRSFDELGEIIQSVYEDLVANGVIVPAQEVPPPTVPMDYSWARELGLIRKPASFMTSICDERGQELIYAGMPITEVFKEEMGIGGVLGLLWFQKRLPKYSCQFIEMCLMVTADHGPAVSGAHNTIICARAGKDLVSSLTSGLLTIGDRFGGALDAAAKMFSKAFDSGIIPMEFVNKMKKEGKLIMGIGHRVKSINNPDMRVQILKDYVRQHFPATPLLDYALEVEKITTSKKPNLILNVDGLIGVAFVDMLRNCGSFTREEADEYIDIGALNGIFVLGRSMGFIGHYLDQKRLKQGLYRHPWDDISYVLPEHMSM
# T5 sequence (P53597 41-346): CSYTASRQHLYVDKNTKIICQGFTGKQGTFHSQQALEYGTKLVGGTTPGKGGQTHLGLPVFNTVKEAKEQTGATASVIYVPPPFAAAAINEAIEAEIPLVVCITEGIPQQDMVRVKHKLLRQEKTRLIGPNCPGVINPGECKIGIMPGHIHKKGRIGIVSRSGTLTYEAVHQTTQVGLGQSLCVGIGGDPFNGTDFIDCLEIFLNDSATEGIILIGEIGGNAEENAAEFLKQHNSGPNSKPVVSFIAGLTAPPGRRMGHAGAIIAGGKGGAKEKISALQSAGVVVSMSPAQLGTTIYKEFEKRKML
binder,measurement,setting,value
"hSC44 Fab (Fab, V domains shown) VH: EVQLVESGGGLVQPGGSLRLSCTASGFSIDSYGFSWVRQAPGKGLEHIGYLTAGGRAFYASWAKSRSTITRNTNENTVTLKMNSLRAEDTAVYYCAKLGSGNPVAIWGQGTLVTVSS VL: DIQMTQSPSSLSASVGDRVTITCRASQSVWRNKNVAWYQQKPGKAPKRLIYAIASLYSGVPSRFSGSGSGTDFTLTISSLQPEDFATYYCVGHYGSENDAYYAFGQGTKVEIK",Kd,[1],1.62 nM
same,koff,[1],8.16e-05 s⁻¹
same,kon,[1],50600 M⁻¹ s⁻¹
same,Kd,[2],1.5 nM
same,Kd,[3],40.5 nM
same,koff,[3],0.00235 s⁻¹
same,kon,[3],57900 M⁻¹ s⁻¹
"hSC44.20 IgG (antibody, V domains shown, human IgG1, kappa light chain) VH: EVQLVESGGGLVQPGGSLRLSCTASGFSIDSYGFSWVRQAPGKGLEHIGYLTAGGRAFYASWAKSRSTITRNTNENTVTLKMNSLRAEDTAVYYCAKLGTGSRFAIWGQGTLVTVSS VL: DIQLTQSPSSLSASVGDRVTITCRASQSVWRNKNVAWYQQKPGKAPKRLIYAIASLYSGVPSRFSGSGSGTDFTLTISSLQPEDFATYYCVGHYGSENDAYYAFGQGTKVEIK",koff,[4],< 1e-07 s⁻¹
same,kon,[4],257000 M⁻¹ s⁻¹
same,Kd,[5],21 nM
"hSC44.20.N32F^L IgG (antibody, V domains shown, as the heavy chain of m4 (heavy chain of m2 with the stated CDR-H3 changes, Kabat numbering); as the light chain of m1 with N32F in CDR-L1 (Kabat numbering); source: Expi293, transfected, purified (CaptoL, SEC); copies: 2 + 2) VH: EVQLVESGGGLVQPGGSLRLSCTASGFSIDSYGFSWVRQAPGKGLEHIGYLTAGGRAFYASWAKSRSTITRNTNENTVTLKMNSLRAEDTAVYYCAKLGTGSRFAIWGQGTLVTVSS VL: DIQMTQSPSSLSASVGDRVTITCRASQSVWRNKFVAWYQQKPGKAPKRLIYAIASLYSGVPSRFSGSGSGTDFTLTISSLQPEDFATYYCVGHYGSENDAYYAFGQGTKVEIK",Kd,[6],< 1.54 nM
same,Kd,[7],1.6 nM
same,binding result,[8],binds
same,binding result,[9],binds
"hSC44.20.N32Y^L IgG (antibody, V domains shown) VH: EVQLVESGGGLVQPGGSLRLSCTASGFSIDSYGFSWVRQAPGKGLEHIGYLTAGGRAFYASWAKSRSTITRNTNENTVTLKMNSLRAEDTAVYYCAKLGTGSRFAIWGQGTLVTVSS VL: DIQMTQSPSSLSASVGDRVTITCRASQSVWRNKYVAWYQQKPGKAPKRLIYAIASLYSGVPSRFSGSGSGTDFTLTISSLQPEDFATYYCVGHYGSENDAYYAFGQGTKVEIK",Kd,[6],< 0.001 nM
same,Kd,[7],9.5 nM
"hSC44 IgG (antibody, V domains shown) VH: EVQLVESGGGLVQPGGSLRLSCTASGFSIDSYGFSWVRQAPGKGLEHIGYLTAGGRAFYASWAKSRSTITRNTNENTVTLKMNSLRAEDTAVYYCAKLGSGNPVAIWGQGTLVTVSS VL: DIQMTQSPSSLSASVGDRVTITCRASQSVWRNKNVAWYQQKPGKAPKRLIYAIASLYSGVPSRFSGSGSGTDFTLTISSLQPEDFATYYCVGHYGSENDAYYAFGQGTKVEIK",koff,[10],9.3e-05 s⁻¹
same,Kd,[6],1.2 nM
